Test results reported in IntAct's records for PubMed 29039417.

B1: Protein PTHB1 (Homo sapiens), Q3SYG4 (parent)
chain: MSLFKARDWWSTILGDKEEFDQGCLCLANVDNSGNGQDKIIVGSFMGYLRIFSPHPAKTGDGAQAEDLLLEVDLRDPVLQVEVGKFVSGTEMLHLAVLHSRKLCVYSVSGTLGNVEHGNQCQMKLMYEHNLQRTACNMTYGSFGGVKGRDLICIQSMDGMLMVFEQESYAFGRFLPGFLLPGPLAYSSRTDSFLTVSSCQQVESYKYQVLAFATDADKRQETEQQKLGSGKRLVVDWTLNIGEQALDICIVSFNQSASSVFVLGERNFFCLKDNGQIRFMKKLDWSPSCFLPYCSVSEGTINTLIGNHNNMLHIYQDVTLKWATQLPHIPVAVRVGCLHDLKGVIVTLSDDGHLQCSYLGTDPSLFQAPNVQSRELNYDELDVEMKELQKIIKDVNKSQGVWPMTEREDDLNVSVVVSPNFDSVSQATDVEVGTDLVPSVTVKVTLQNRVILQKAKLSVYVQPPLELTCDQFTFEFMTPDLTRTVSFSVYLKRSYTPSELEGNAVVSYSRPTDRNPDGIPRVIQCKFRLPLKLICLPGQPSKTASHKITIDTNKSPVSLLSLFPGFASQSDDDQVNVMGFHFLGGARITVLASKTSQRYRIQSEQFEDLWLITNELILRLQEYFEKQGVKDFACSFSGSIPLQEYFELIDHHFELRINGEKLEELLSERAVQFRAIQRRLLARFKDKTPAPLQHLDTLLDGTYKQVIALADAVEENQGNLFQSFTRLKSATHLVILLIALWQKLSADQVAILEAAFLPLQEDTQELGWEETVDAAISHLLKTCLSKSSKEQALNLNSQLNIPKDTSQLKKHITLLCDRLSKGGRLCLSTDAAAPQTMVMPGGCTTIPESDLEERSVEQDSTELFTNHRHLTAETPRPEVSPLQGVSE
partner: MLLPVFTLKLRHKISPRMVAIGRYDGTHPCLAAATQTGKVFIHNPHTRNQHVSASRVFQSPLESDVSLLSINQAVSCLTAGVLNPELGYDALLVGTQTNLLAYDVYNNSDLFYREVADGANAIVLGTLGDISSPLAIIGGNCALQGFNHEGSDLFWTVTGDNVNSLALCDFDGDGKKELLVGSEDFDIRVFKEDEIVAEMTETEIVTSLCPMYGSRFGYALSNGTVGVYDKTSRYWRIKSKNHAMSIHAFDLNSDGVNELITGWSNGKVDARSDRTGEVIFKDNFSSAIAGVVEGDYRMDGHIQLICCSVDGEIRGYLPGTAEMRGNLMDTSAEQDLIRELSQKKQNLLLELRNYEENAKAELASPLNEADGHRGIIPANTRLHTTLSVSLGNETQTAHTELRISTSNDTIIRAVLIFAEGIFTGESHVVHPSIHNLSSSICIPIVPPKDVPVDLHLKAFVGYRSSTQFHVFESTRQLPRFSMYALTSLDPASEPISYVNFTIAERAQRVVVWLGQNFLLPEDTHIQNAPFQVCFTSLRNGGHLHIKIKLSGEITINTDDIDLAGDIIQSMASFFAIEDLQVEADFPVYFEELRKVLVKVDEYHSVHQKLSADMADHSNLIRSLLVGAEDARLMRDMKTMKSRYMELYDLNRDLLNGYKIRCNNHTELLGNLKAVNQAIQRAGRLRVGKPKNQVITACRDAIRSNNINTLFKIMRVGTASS

Variants of: B1
Conditions: with bbs2_human BBS2, Q9BXC9

Variant	effect of a mutation on the interaction
E625K	with no effect
E625A	with no effect
Q643E	with no effect
Q643K	with no effect
Q643A	with no effect
K626A	with no effect
K626E	with no effect
I617E	with no effect
I617K	with no effect
I617A	with no effect
I612K	with no effect
I612A	with no effect
I612E	with no effect
I649A	with no effect
I649E	with no effect
I649K	with no effect
E644K	with no effect
E644A	with no effect
S639K	with no effect
S639E	with no effect
S639A	with no effect
H652E	with no effect
H652A	with no effect

Variant	effect of a mutation on the interaction
H652K	with no effect
P641K	with no effect
P641E	with no effect
P641A	with no effect
W610K	with no effect
W610A	with no effect
W610E	with no effect
L618K	with no effect
L618A	with no effect
L618E	with no effect
F606K	with no effect
F606A	with no effect
F606E	with no effect
I640A	with no effect
I640E	with no effect
I640K	with no effect
A592E	with no effect
A592K	with no effect
L648E	with no effect
L648A	with no effect
L648K	with no effect
I601A	with no effect
I601E	with no effect

Variant	effect of a mutation on the interaction
I601K	with no effect
Q602E	with no effect
Q602L	disrupting interaction strength
Q602K	with no effect
Q602A	with no effect
H651A	with no effect
H651K	with no effect
H651E	with no effect
T613E	with no effect
T613A	with no effect
T613I	disrupting interaction strength
T613K	with no effect
D631A	with no effect
D631K	with no effect
D631E	with no effect
S593A	with no effect
S593E	with no effect
S593K	with no effect
F636A	with no effect
F636E	with no effect
F636K	with no effect
A633E	with no effect
A633K	with no effect

Variant	effect of a mutation on the interaction
A633V	disrupting interaction strength
Q621A	with no effect
Q621E	with no effect
Q621K	with no effect
V629K	with no effect
V629E	with no effect
V629A	with no effect
K630E	with no effect
K630A	with no effect
S603E	with no effect
S603K	with no effect
S603A	with no effect
D608E	with no effect
D608K	with no effect
D608A	with no effect
T595E	with no effect
T595A	with no effect
T595K	with no effect
T595S	disrupting interaction strength
T595I	disrupting interaction strength
Y623E	with no effect
Y623A	with no effect
